Legend:
carotid plaque = experiment: Immunohistology (immunofluorescence) on carotid plaque sections; type: binding, human; conditions: 7816Fab-FLAG detected with anti-FLAG clone M2 and anti-Mouse IgG AlexaFluor488
Experimental: Carotid plaques harvested during TEA surgery, just after excision were fixed in 4% paraformaldehyde in PBS, cut in consecutive 2 mm thick rings, decalcified in EDTA solution when required, cryoprotected in 10% sucrose in PBS, embedded in OCT compound, then snap frozen in isopentane/liquid nitrogen and stored at −80° C. Cryosections ([…]) were cut from every ring and stained with either Hematoxylin/Eosin or Movat's pentachrome, thus the morphology was examined in at least 4 sections/ring using an Eclipse 55i microscope equipped with DS-L1 camera and LUCIA 4.82 software (all from Nikon, Tokyo, J). Multiple images collected from each ring, were composed by LUCIA 4.82 software, to obtain a whole section picture. The presence of thin cap, foam cells, fibrolipids, ulcerations, necrotic/thrombotic core, calcifications, hemorrhage/thrombosis and inflammatory infiltrate were used to classify carotid plaques as stable, vulnerable, or unstable, following Virmani's modified AHA classification. Additional sections (10 μm thick) from rings with and without atheroma were selected and submitted for immunolabeling with anti CD138 antibody or with 7816Fab-FLAG detected with anti-FLAG clone M2 followed by rabbit-anti-Mouse IgG AlexaFluor488. DAPI stained the nuclei. […] The nuclear fluorescence was due to DAPI staining.

transgelin 1 (SM22) = biological target: T1, transgelin 1 (SM22) (Homo sapiens, UniProt Q01995); experiment: 2D electrophoresis Western blotting on plaque lysate and MALDI-ToF identification of the recognized antigen; type: binding; conditions: two distinct spots of the 2D gel; confirmed by protein sequencing
T1 construct: A piece of the coronary plaque was weighted (65 mg), cut in small fragments and directly smashed with a Dounce; from tissue; host or cells: human coronary atherosclerotic plaque
Experimental: A piece of the coronary plaque was weighted (65 mg), cut in small fragments and directly smashed with a Dounce in 500 μl of the R5 buffer, containing: urea 8M, thiourea 2M, CHAPS 4%, Zwittergent 0.05%, 40 mM trizma base and a cocktail of protease inhibitors. The lysate was then sonicated for 5 minutes and centrifuged at 13,000 rpm for 30 minutes at 15° C. Supernatant protein content was evaluated by Bradford assay, using BSA dissolved in the same buffer, as standard. The proteins (200 μg), dissolved in R5 buffer (final volume 130 μl), were added to DeStreak (100 mM) and 2% IPG buffer pH 3-10NL, prior to loading the sample on strip pH 3-10NL, 7 cm. Total focusing run for the 1st dimension was 50,000 Vh. The 2nd dimension was carried out using 12.5% acrylamide SDS-PAGE. MW Standard proteins were run on the same gel. The gel was stained with colloidal Coomassie Brilliant Blue (cCBB). […]
Protein corresponding to positive spots in WB were excised from the gel, destained, reduced with DTE (10 mM in ammonium bicarbonate 25 mM) at 56° C. for 30 minutes, alkylated with IAA (55 mM in ammonium bicarbonate 25 mM) in the dark at room temperature for 20 minutes. They were digested with trypsin and directly analysed by MALDI-ToF mass spectrometry, using alpha-cyano-4-hydroxycinnamic acid as matrix. […]

[1] = biological target: T2, recombinant transgelin (rTAGLN) (Homo sapiens, UniProt Q01995); type: binding; conditions: 4-500 ng rTAGLN per well
T2 construct: purchased Origene TP302448

purified OmpK36 = biological target: T3, purified OmpK36 (Klebsiella pneumoniae, UniProt Q48473); experiment: Western blot of purified OmpK36 with recombinant Fabs; type: binding; conditions: 400 ng OmpK36His per lane; Fabs at 10 μg/L; blocking PBS/BSA10%
T3 construct: made in house; host or cells: E. coli BL21 (DE3), pET28b (BamHI/XhoI cloning)
Experimental: 400 ng of purified OmpK36His was loaded on polyacrylamide gel (all lanes) and SDS-PAGE was performed. Proteins were blotted on PVDF membrane for 2 h at 350 mA. After blocking with PBS/BSA10% the membrane was cut to single lanes and each lane was incubated for 1 h with Fabs at 10 μg/L. After three washes membrane was incubated with anti-Human Light Chain K antibody (Sigma).

T1 sequence (Q01995 whole entry, the tested form may be a part): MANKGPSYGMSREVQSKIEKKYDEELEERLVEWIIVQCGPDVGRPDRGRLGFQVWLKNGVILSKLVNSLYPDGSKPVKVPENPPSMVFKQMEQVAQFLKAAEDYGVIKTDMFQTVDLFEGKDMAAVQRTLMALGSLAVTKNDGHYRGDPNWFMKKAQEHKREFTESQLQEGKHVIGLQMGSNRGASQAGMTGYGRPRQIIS
T2 sequence (Q01995 whole entry): as the sequence (Q01995 whole entry, the tested form may be a part) above

B1: Fab7816: human recombinant Fab from coronary plaque library ID11LIB; heavy chain SEQ ID NO:2, light chain SEQ ID NO:4 (antibody, listed as Homo sapiens, V domains shown)
VH: LESGPGQVKPSQTLSLTCTVSGGSIGSGSYSWNWIRQPAGRGLEWIGRISDSGNTNFNPSLKSRVTMSVDTSKNQFALKLTSVTAADTATYFCARGRGILTGLFDYWGQGSLVSVSSASTKGPSVFPLAPSSKSTSGGTAALGCLVKD
VL: SPDSLAVSPGGRATIKCASSQSVLDNSNHKNSLAWYQQKPGLPPKLLIYWASTRYSGVPDRFSGSGSGTDFTLTINNLQAADVAVYFCQQYYSTPWTFGQGTKVE
For B1, the “immunofluorescence staining of carotid plaque sections” value (carotid plaque) was “specific immonostaining, mainly cytoplasmic”, the “self antigen recognized in plaque lysate (2DE-WB spots, mass spectrometry)” value (transgelin 1 (SM22)) was “transgelin 1 (SM22) was unequivocally identified as the putative natural (self) antigen” and the “binding to human transgelin in Western blot” value [1] was “recognize human transgelin”. The “reactivity with purified OmpK36 in western-blot” value (purified OmpK36) was “react with purified OmpK36”.

From patent publication US20120165211A1, “Human Antibodies Cross-Reacting With A Bacterial And A Self Antigen From Atherosclerotic Plaques” (priority 2007, published 2012)
